Laboratory results reported in patent US20190358305A1.

Molecular target: Recombinant human active MMP-3 (ab96555, Abcam) (human) (UniProt P08254)
Assay: cell-based or functional assay

UniProt P08254, sequence (P08254 100-477 limits assumed): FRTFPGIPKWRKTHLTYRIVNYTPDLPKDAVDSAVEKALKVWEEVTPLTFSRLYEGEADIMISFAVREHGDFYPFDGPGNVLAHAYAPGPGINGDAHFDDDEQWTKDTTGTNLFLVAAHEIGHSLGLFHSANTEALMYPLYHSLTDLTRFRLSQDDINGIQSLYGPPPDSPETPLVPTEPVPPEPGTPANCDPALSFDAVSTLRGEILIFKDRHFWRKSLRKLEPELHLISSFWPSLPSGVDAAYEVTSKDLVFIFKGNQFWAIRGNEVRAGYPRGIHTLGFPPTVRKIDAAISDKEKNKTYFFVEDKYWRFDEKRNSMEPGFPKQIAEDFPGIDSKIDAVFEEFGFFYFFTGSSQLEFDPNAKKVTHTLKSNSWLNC

Work on “Recombinant human active TIMP-1 (ab82104, Abcam) (from UniProt P01033 24-207)” yielded a TEER reduction of HTM monolayers over 24 h: 10 ng/ml active MMP-3 against MMP-3 inactivated by incubation with TIMP-1 of 4.29 Ohm·cm^2, a TEER reduction of SCEC monolayers over 24 h: 10 ng/ml active MMP-3 against MMP-3 inactivated by incubation with TIMP-1 of 5.62 Ohm·cm^2 and an increase in paracellular flux (Papp) of 70 kDa FITC-dextran through HTM monolayers: active MMP-3 against TIMP-1-inactivated MMP-3 of 4e-05 ×10⁻⁶ cm/s. The increase in paracellular flux (Papp) of 70 kDa FITC-dextran through SCEC monolayers: active MMP-3 against TIMP-1-inactivated MMP-3 was 0.00014 ×10⁻⁶ cm/s.
